Assay results taken from publication PMC5352116.

Target: Death Receptor 5 (DR5) (human (endogenous in MCF-10A-Tr)), O14763
Test: co-IP; DISC analysis: MCF-10A-Tr cells untreated or treated with QC, TRAIL or TRAIL (10 ng/mL, 3 h) then QC (2.5 uM, 48 h); RIPA lysate, pre-cleared with sepharose-4B beads, immunoprecipitated with anti-DR5 antibody at 4°C overnight; western blot
Conditions: remark: other sources report otherwise

B1: CASPASE 8, Q14790 1-479 (enzyme)
chain: MDFSRNLYDIGEQLDSEDLASLKFLSLDYIPQRKQEPIKDALMLFQRLQEKRMLEESNLSFLKELLFRINRLDLLITYLNTRKEEMERELQTPGRAQISAYRVMLYQISEEVSRSELRSFKFLLQEEISKCKLDDDMNLLDIFIEMEKRVILGEGKLDILKRVCAQINKSLLKIINDYEEFSKERSSSLEGSPDEFSNGEELCGVMTISDSPREQDSESQTLDKVYQMKSKPRGYCLIINNHNFAKAREKVPKLHSIRDRNGTHLDAGALTTTFEELHFEIKPHDDCTVEQIYEILKIYQLMDHSNMDCFICCILSHGDKGIIYGTDGQEAPIYELTSQFTGLKCPSLAGKPKVFFIQACQGDNYQKGIPVETDSEEQPYLEMDLSSPQTRYIPDEADFLLGMATVNNCVSYRNPAEGTWYIQSLCQSLRERCPRGDDILTILTEVNYEVSNKDDKKNMGKQMPQPTFTLRKKLVFPSD
fold level in the DISC (anti-DR5 immunoprecipitate), TRAIL+QC treated against untreated cells: 7 fold
